Test results from the supplement of paper PMC9233669.
Fewer inactive variants are shown than the library holds.

Assays:
[1] = system: biotinyl-Leu-oxazolone; experiment: self-aminoacylation, catalytic enhancement (BLO) (fold over background); higher = more active; k-Seq, kA / k0A0; sequences stand for … in GGGAAUGGAUCCACAUCUACGAAUUC…UUCACUGCAGACUUGACGAAGCUG
In short: (§1)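 Working in 50 μL HEPES/NaCl/KCl/MgCl2/CaCl2 buffer with 5% acetonitrile at pH 6.9–7.0, mutagenized RNA pools (0.43 μM; 21-nt variable region) were reacted with 2–1250 μM of each biotinyl-aminoacyl-oxazolone for 90 minutes at room temperature. Streptavidin capture followed, with quantification by triplicate qPCR and Illumina sequencing. Catalytic enhancement is reported as median kA over the uncatalyzed rate, the low-activity peak of a bimodal Gaussian fit to the data.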

[2] = system: biotinyl-Ile-oxazolone; experiment: self-aminoacylation, catalytic enhancement (BIO) (fold over background); higher = more active; k-Seq, kA / k0A0; sequences stand for … in GGGAAUGGAUCCACAUCUACGAAUUC…UUCACUGCAGACUUGACGAAGCUG
In short: as §1

[3] = system: biotinyl-Val-oxazolone; experiment: self-aminoacylation, catalytic enhancement (BVO) (fold over background); higher = more active; k-Seq, kA / k0A0; sequences stand for … in GGGAAUGGAUCCACAUCUACGAAUUC…UUCACUGCAGACUUGACGAAGCUG
In short: as §1

[4] = system: biotinyl-Met-oxazolone; experiment: self-aminoacylation, catalytic enhancement (BMO) (fold over background); higher = more active; k-Seq, kA / k0A0; sequences stand for … in GGGAAUGGAUCCACAUCUACGAAUUC…UUCACUGCAGACUUGACGAAGCUG
In short: as §1

[5] = system: biotinyl-Phe-oxazolone; experiment: self-aminoacylation, catalytic enhancement (BFO) (fold over background); higher = more active; k-Seq, kA / k0A0; sequences stand for … in GGGAAUGGAUCCACAUCUACGAAUUC…UUCACUGCAGACUUGACGAAGCUG
In short: as §1

[6] = system: biotinyl-Trp-oxazolone; experiment: self-aminoacylation, catalytic enhancement (BWO) (fold over background); higher = more active; k-Seq, kA / k0A0; sequences stand for … in GGGAAUGGAUCCACAUCUACGAAUUC…UUCACUGCAGACUUGACGAAGCUG
In short: as §1

Sequence	self-aminoacylation [1]	self-aminoacylation [2]	self-aminoacylation [3]	self-aminoacylation [4]	self-aminoacylation [5]	self-aminoacylation [6]
ACUACCCUGGUCAUCGAUUGA [Fam2.1 aminoacylation ribozyme variant]	1.16	1.01	1.02	1.05	1.59	1.16
AUUCACAUAGGUCACCGGGUG [Fam2.2 aminoacylation ribozyme variant]	7.78	4.8	4.6	5.7	42.3	5.42
CUUACCCUGGGCAUCGAGUGA [Fam2.1 aminoacylation ribozyme variant]	7.09	2.57	3.33	5.55	20.7	6.01
AUUCACAUAGGUCAUCCGGUG [Fam2.2 aminoacylation ribozyme variant]	9.85	5.32	5.53	7.79	55.9	7.74
AUUACCCUGGUCAUCAGGUGA [Fam2.1 aminoacylation ribozyme variant]	4.45	2.6	3.03	5.07	29.8	5.53
CCACCAUUCAAGCAAUCGGUC [Fam1B.1 aminoacylation ribozyme variant]	0.958	1.16	1.3	0.934	1.89	1.4
AUUCACCUAGGUGAUCGCGUG [Fam2.2 aminoacylation ribozyme variant]	4.17	2.69	2.31	2.86	14.6	2.83
AUUUACCUAGGUCUUCGGGUG [Fam2.2 aminoacylation ribozyme variant]	4.16	2.84	3.38	4.28	24.9	3.92
AAGUUUGCGAAUACUCGCAAG [Fam3.1 aminoacylation ribozyme variant]	1.4	1.36	0.993	1.13	3.35	2.24
AUUCACCUAGGACAUCGGGUU [Fam2.2 aminoacylation ribozyme variant]	1.38	1.47	1.77	1.39	3.67	1.25
CCACAUUUCAAGCAGUCGGUC [Fam1B.1 aminoacylation ribozyme variant]	0.899	1.15	1.15	0.9	0.868	0.803
CCACACUUCAAGCUAUCUGUC [Fam1B.1 aminoacylation ribozyme variant]	0.362	0.468	0.612	0.284	0.636	0.371
CCAGACUACAAGCAAUCGGUC [Fam1B.1 aminoacylation ribozyme variant]	1.17	1.26	1.42	1.16	1.07	1.35
CUCCUUCAAACAAUCGGUCUC [Fam1A.1 aminoacylation ribozyme variant]	1.75	1.11	0.933	1.19	40.8	26.2
AAGUGUGCUAAUAGCCGCAAG [Fam3.1 aminoacylation ribozyme variant]	1.2	1.81	1.48	1.49	3.94	2.61
CCACACGUCAAGCAAUGGGUC [Fam1B.1 aminoacylation ribozyme variant]	1.36	1.14	1.49	1.36	0.534	1.02
CCACACUUCAGGCCAUCGGUC [Fam1B.1 aminoacylation ribozyme variant]	1.77	2.37	2.49	1.94	7.44	1.69
AUUACCCUGAUCAUCGUGUGA [Fam2.1 aminoacylation ribozyme variant]	5.65	2.37	2.67	5.72	27.5	5.88
GUACUUCAAACAGUCGGUCUG [Fam1A.1 aminoacylation ribozyme variant]	1.3	1.32	1.22	1.41	1.14	1.5
AGGUUUGCUAAUAGUUGCAAG [Fam3.1 aminoacylation ribozyme variant]	0.994	1.17	0.924	0.863	1.44	0.893
CUACUUCCAACUAUCGGUCUG [Fam1A.1 aminoacylation ribozyme variant]	0.942	0.81	0.92	0.833	1.08	0.744
AUUCACCUAGGUCAUAUGGUG [Fam2.2 aminoacylation ribozyme variant]	4.8	2.25	2.25	3.44	20.3	3.68
CCACACAUCAAGCAUUCGGUC [Fam1B.1 aminoacylation ribozyme variant]	1.48	1.75	1.64	1.6	1.02	1.19
ACGUUUGCUACUAGUCGCAAG [Fam3.1 aminoacylation ribozyme variant]	1.7	1.76	1.47	2.16	2.4	1.31
CUACUUCAAACAUGCGGUCUG [Fam1A.1 aminoacylation ribozyme variant]	1.61	1.27	1.34	1.39	3.21	0.769
CUUCUUCGAACAAUCGGUCUG [Fam1A.1 aminoacylation ribozyme variant]	0.706	0.627	0.743	0.768	0.708	0.443
